Laboratory results as given in patent US20250188143A1, “COMBINED GENE AND RADIO THERAPY FOR THE TREATMENT OF CANCER” (FUNDACION PARA LA INVESTIGACION MEDICA APLICADA, priority 2022, published 2025).

Experiments:
murine STING = molecular target: T1, murine STING (Mus musculus, UniProt Q3TBT3); conditions: cited from earlier work
T1 sequence (Q3TBT3 1-378): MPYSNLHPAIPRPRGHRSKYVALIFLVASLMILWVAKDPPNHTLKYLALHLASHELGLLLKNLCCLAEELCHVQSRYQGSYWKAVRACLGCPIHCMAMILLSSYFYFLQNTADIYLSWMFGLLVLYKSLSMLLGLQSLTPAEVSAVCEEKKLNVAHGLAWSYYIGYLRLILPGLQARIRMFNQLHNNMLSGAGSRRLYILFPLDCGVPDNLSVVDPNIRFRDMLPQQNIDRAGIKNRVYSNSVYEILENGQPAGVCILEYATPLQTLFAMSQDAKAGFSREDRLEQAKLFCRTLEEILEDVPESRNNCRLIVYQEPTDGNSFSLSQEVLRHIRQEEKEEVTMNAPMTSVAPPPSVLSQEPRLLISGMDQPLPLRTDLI

B16 cells = test: Radiation and IFN signaling on activation of the ISREx4 promoter (luciferase); assay type: cell-based, murine; conditions: B16 cells transduced with AAV8-ISREx4-LucmiR122T
Protocol: To this end, B16 cells received 8 Gy or 0 Gy as described above and then were transduced with AAV8-ISREx4-LucmiR122T (1×10^5 viral genomes/cell) and 48 h later 1,000 IU of either IFN-α, IFN-β or IFN-γ were added to the culture and luciferase activity was measured 48 h later as described above.

[1] = system: MC38 cell lines stably expressing hSTINGmut; test: Luciferase activity under chemokine promoters; assay type: cell-based, murine
Protocol: The CXCL9-promoter (CXCL9 according to SEQ ID NO: 23) and the CXCL10-promoter (CXCL10 according to SEQ ID NO: 24) were used for the following experiment. To this end, lentiviral vectors encoding luciferase under the control of these two different promoters were constructed. […] In addition, the lentiviral vectors encoding the short IFN-β A promoter, the short IFN-β B promoter, the short IFN-β C promoter described in experiment 1 were used as a comparison. […] After another 3 or 6 h, cells were harvested and luciferase activity measured as described in experiment 1.

[2] = system: MC38 cell lines stably expressing hSTINGmut; test: scIL-12 mRNA and protein expression under STING-activity dependent promoters; assay type: cell-based, murine
Source text: The CXCL9-promoter and the CXCL10-promoter from experiment 2, and a full length IFN-β-promoter (IFN-β according to SEQ ID NO: 25) were used for the following experiment. To this end, lentiviral vectors encoding murine scIL-12 under the control of these three different promoters were constructed. […] After the indicated time points, cells were harvested. The cell lysate was used to measure scIL-12 mRNA expression by qPCR as described before (example 1, experiment 1), whereas the supernatant was used to measure secreted scIL-12 protein in NUNC MaxiSorp flat-bottom 96-well plates using an ELISA assay kit (OptEIA, Mouse IL-12 (p70), BD Biosciences, San Diego, CA USA), following manufacturer's instructions.

[3] = system: HEK293T cells stably expressing hSTINGmut; test: Luciferase activity under synthetic promoters; assay type: cell-based, human
Source text: (§1) Seven different promoters were generated, namely short STATx4 (4 STAT motifs separated by 6 nucleotides according to SEQ ID NO: 26), IRSF3×4 (4 IRSF3 motifs separated by 20 nucleotides according to SEQ ID NO: 27), short IRSF3×4 (4 IRSF3 motifs separated by 6 nucleotides according to SEQ ID NO: 28), ISREx4 (4 ISRE motifs separated by 20 nucleotides according to SEQ ID NO: 12), short ISREx4 (4 ISRE motifs separated by 6 nucleotides according to SEQ ID NO: 13), NFκBx4 (4 NFκB motifs separated by 20 nucleotides according to SEQ ID NO: 29) and short NFκBx4 (4 NFκB motifs separated by 6 nucleotides according to SEQ ID NO: 30). […] In addition, a plasmid containing the luciferase sequence under the control of the murine IFN-β-promoter (mIFN-β) and a plasmid containing the luciferase sequence under the control of CXCL10-promoter were used as controls. Either MC38 cells or human HEK293T cells, both which stably expressed hSTINGmut as described above (example 1), were transfected with the indicated plasmids using Lipofectamine3000 according to the manufacturers protocol, whereas a negative control was mock-transfected (Basic).

[4] = system: MC38 cells stably expressing hSTINGmut; test: Luciferase activity under synthetic promoters; assay type: cell-based, murine; conditions: DMXAA 50 μg/mL
Source text: as §1

[5] = 1,000 IU interferon alone (0 Gy)
[6] = interferon together with radiation 8 Gy

O=C(O)Cc1cccc2c(=O)cc(-c3ccccc3)oc12 [FAA, flavone-8-acetic acid]
activation of murine STING (murine STING): activated

IFN-α
luciferase activity (B16 cells; [5]): significantly increased luciferase activity | luciferase activity (B16 cells; [6]): induced luciferase activity dramatically

B1: CXCL10-promoter: CXCL10 promoter according to SEQ ID NO: 24 (nucleic acid, listed as Mus musculus)
DNA: TCTAACTGTTCACTAAGTTGTATAGACTTTGGATCTGGCTAAATTTGGCGTGTGATTTTTTTTTAAAGTTTATTCCAAGTATTTTATAATAAAGCATATGAAGTAAAAAGCAAAAATAAACAGTGTAAACACAACAAATGTAAAAACCATGGTTAGAACCTGACTTAGATATCAGTTCTGTGTTTTATTTATGAGAGAAGGAAGATGAGAATTAAAGCCATTTCCAGACTTATTCTGCAAGGCACTGCATCTGATTTCTCAAACAGCTCACGCTTTGGAAAGTGAAACTTACCTCACTCGTTAAAAATTAAAAGGAGCACAAGAGGGGAGAGGGAAATTCCAAGTTCATGGGTCACAATAAACACAAGCAATGCCCTCGGTTTACAGGGGACTTCCCTCGGGTTGCGGAGCCTTGCTGAGTCATCTCCAAAGTCAGCCAATCAGGACTCAGGGAGGGAAACTCTTTGCAGATAAATACTCCTCAGCAGCCGGCACTCGAGAAGCGCTTCATCCACCGCTGAGAGACATCCCGAGCCAACCTTCCGGAAGCCTCCCCATCAGCACC
modifications: misc_feature 1..565 CXCL10-promoter
luciferase activity upon DMXAA ([1]; DMXAA 50 μg/mL, 3 or 6 h, compared to the IFN-β promoters): significantly higher luciferase activities | luciferase activity in the absence of DMXAA (leaky expression) ([1]; vehicle): significant luciferase activity | scIL-12 mRNA or protein expression upon DMXAA ([2]; DMXAA 50 μg/mL): highly upregulated | scIL-12 production in the absence of DMXAA (leakage) ([2]; vehicle): significant leakage | luciferase activity upon DMXAA (inducibility) ([3]; DMXAA 50 μg/mL): highest inducibility | luciferase activity in the absence of DMXAA (leakage) ([3]; vehicle): considerable leakage

B2: IFN-γ: exogenously added interferon, 1,000 IU (protein, UniProt P01579 24-161, looked up)
Interferon gamma: QDPYVKEAENLKKYFNAGHSDVADNGTLFLGILKNWKEESDRKIMQSQIVSFYFKLFKNFKDDQSIQKSVETIKEDMNVKFFNSNKKKRDDFEKLTNYSVTDLNVQRKAIHELIQVMAELSPAAKTGKRKRSQMLFRG
luciferase activity (B16 cells; [5]): significantly increased luciferase activity | luciferase activity (B16 cells; [6]): induced luciferase activity dramatically

B3: short STAT-promoter: 4 STAT motifs separated by 6 nucleotides according to SEQ ID NO: 26 (nucleic acid)
DNA: ATCTCTGCGATGAACCTCACTTCGCTAGAAATCTCTGCGATGAACCTCACTTCGCTAGAAATATCTCTGCGATGAACCTCACTTCGCTAGAAATCTCTGCGATGAACCTCACTTCGCTAGAAGTGCCTCTTATGATCTGGATCTCGAGCCATGGTCGAGGCCTGTAGGCGTGTACGGTGGGAGGCTTATATAAGCAGAGCTC
modifications: misc_feature 1..202 STATx4
luciferase activity upon DMXAA (inducibility) [4]: poor inducibility
